Data from patent publication US20050148763A1, “Peg-binding pth or peg-binding pth derivative” (Chugai Seiyaku Kabushiki Kaisha, priority 2002, published 2005).

Tests used:
Assay type in all cases: in vivo
[1] = Pharmacokinetics and bioavailability in rats by subcutaneous route; conditions: for BA: subcutaneous route; for AUC / MRT / Tmax / t ½: subcutaneous, 80 μg/mL at 1 mL/kg
Protocol: (§1) Each sample was adjusted to 80 μg/mL by dilution with 25 mmol/L citrate-phosphate buffer (pH 5.0) containing 100 mmol/L NaCl and 0.05 vol % Tween 20 to give a solution for administration. Male SD rats at 6 weeks of age (CLEA Japan, Inc.) were provided for this experiment. Intravenous injection was performed on rats having polyethylene tubes (SP-31, Natsume Seisakusho Co., Ltd.) inserted into the femoral artery and vein. The solutions thus prepared were each administered at a dose of 1 mL/kg through a polyethylene tube inserted into the femoral vein, and blood was collected through a polyethylene tube inserted into the femoral artery before administration and at 5, 15, 30 and 45 minutes as well as 1, 2, 4, 6, 8 and 24 hours after administration. Subcutaneous administration was performed on rats having polyethylene tubes inserted into the femoral artery. The solutions prepared above were each subcutaneously administered at a dose of 1 mL/kg to the dorsal neck region of the rats, and blood was collected in the same manner as used for intravenous injection. These blood samples were centrifuged to collect plasma and stored at −40° C. until assayed for PTH(1-34) or PEG-PTH(1-34) levels.
(§2) The level of PTH(1-34) or PEG-PTH(1-34) was determined by RIA analysis using a Rat PTH IRMA Kit (Immutopics). A Cobra Quantum Model 5005 gamma counter (Packard) was used to measure radioactivity for each sample. The plasma level of PTH(1-34) or PEG-PTH(1-34) was calculated from a calibration curve prepared using PTH(1-34) or PEG-PTH(1-34). The Winnonlin program Ver. 2.1 (Scientific Consulting Inc.) was used to analyze the time course of changes in the calculated plasma PTH(1-34) or PEG-PTH(1-34) levels (FIG. 3: by intravenous route; FIG. 4: by subcutaneous route) to calculate the following as pharmacokinetic parameters: time required to reach the maximum plasma level (Tmax); maximum plasma level (Cmax); area under the curve of plasma levels (AUC); plasma half-life (t1/2); total body clearance (Cltotal); mean residence time in the body (MRT); and bioavailability (BA). […]

[2] = Hypercalcemic effect of PEG-PTH(1-34) in normal male BDF1 mice; conditions: for time of maximum increase in blood ionized calcium levels after administration: sc, hPTH(1-34) 50-500 nmol/kg, PEG-PTHs 150 nmol/kg
Protocol: (§3) 2 k and 5 k PEG-PTH(1-34) were also adjusted similarly to 30 nmol/mL (calculated as PTH) and allowed to stand on ice immediately before administration.
(§4) Male BDF1 mice at 5 weeks of age (Charles River Japan, Inc.) were measured for their body weight. Immediately before drug administration, blood was collected by orbital puncture into heparinized capillary tubes and measured for baseline levels of blood ionized calcium and pH using a Ca^2+/pH analyzer (Model 348/Bayer Medical Ltd.) to give the corrected level of ionized calcium at pH 7.4 for each sample. The mice received subcutaneous administration of each drug at a dose of 5 mL/kg. […] At 1, 3 and 6 hours after administration, blood was collected by orbital puncture to monitor the time course of corrected blood ionized calcium levels.

[3] = Pharmacokinetics in rats by intravenous route; conditions: 80 μg/mL at 1 mL/kg
Protocol: as §1, §2

[4] = Hypotensive effect in anesthetized rats; conditions: sc
Protocol: The mono-methoxy 5 k PEG-PTH(1-34) prepared in Example 1(2) was also adjusted similarly to 36.5, 18.3 and 9.1 μg/mL (calculated as PTH(1-34)). The samples thus prepared were then stored on ice and restored to room temperature about 30 minutes before administration.
Female SD rats at 10 weeks of age (Charles River Japan, Inc.) were anesthetized by intraperitoneal administration of 50 mg/kg pentobarbital sodium (Abbott Laboratories). A catheter for blood pressure measurement and a catheter for anesthesia maintenance were inserted into the femoral artery and vein, respectively, of each rat. Anesthesia was maintained using a syringe pump (Terumo Corporation) to ensure continuous injection (at 22.5 mg/kg/hour) of pentobarbital sodium (powder form, Tokyo Kasei Kogyo Co., Ltd.) dissolved in physiological saline (Otsuka Pharmaceutical Co., Ltd.). On the other hand, each catheter for blood pressure measurement was filled with 100 U/mL heparin sodium (Novo Nordisk A/S) in physiological saline. To measure systemic blood pressure, a pressure transducer (Nihon Kohden Corporation) was connected to the catheter for blood pressure measurement and signals from the transducer were input to a blood pressure amplifier (Nihon Kohden Corporation). The resulting data were averaged for use as an indicator of systemic blood pressure. The output of systemic blood pressure was, in turn, input to a measuring unit for instantaneous heart rate (Nihon Kohden Corporation) to determine heart rate. These parameters were continuously recorded on a thermal pen recorder (Graphtec Corporation) at a speed of 5 mm/min. After surgery, an injection needle for administration of a test substance was inserted into the dorsal subcutaneous region of each rat. After each parameter had stabilized, test drugs were administered. […] This figure illustrates changes in blood pressure induced by administration of a negative control (buffer), 50 μg/kg hPTH (1-34) and 36.5 μg/kg 5 k PEG-PTH(1-34) in this order from the upper panel. In addition, the average value of blood pressure before PTH administration and the value at the maximum blood pressure drop after administration were measured for each case to determine the difference between these two values. […] The vertical axis represents the maximum blood pressure drop (mmHg) and the horizontal axis represents the amount of PTH administered.

[5] = Hypercalcemic effect of PEG-PTH(1-34) in normal female DDY mice
Protocol: as §3, §4
The same experiment was repeated on female DDY mice at 5 weeks of age (Charles River Japan, Inc.). The mice received subcutaneous administration of each drug at a dose of 5 mL/kg. […] At 1, 3 and 6 hours after administration, blood was collected by orbital puncture to monitor the time course of corrected blood ionized calcium levels.

Row | Substance | BA ([1]; listed as 2 k PEG-PTH (1-34)) [%] | BA ([1]; listed as 2 k PEG-PTH(1-34)) | AUC [1] [ng·h/mL] | MRT [1] [h] | Tmax [1] [h] | t ½ [1] [h] | increase in blood ionized calcium levels (in words) ([2]; 150 nmol/kg sc) | increased blood ionized calcium level maintained until ([2]; 150 nmol/kg sc) [h] | time of maximum increase in blood ionized calcium levels after administration [2] | AUC [3] [ng·h/mL] | Cltotal [3] [mL/min/kg] | MRT [3] [h] | t ½ [3] [h] | BA [1] [%] | hypotensive effect after administration (in words) ([4]; anesthetized female SD rats) | hypotensive effect over doses, maximum blood pressure drop (in words) ([4]; anesthetized rats, hPTH(1-34) 12.5-50 μg/kg, 5 k PEG-PTH(1-34) 9.1-36.5 μg/kg) | increase in blood ionized calcium levels (in words) ([5]; 150 nmol/kg sc) | time of maximum increase in blood ionized calcium levels after administration ([5]; sc, hPTH(1-34) 50-500 nmol/kg, 5 k PEG-PTH(1-34) 150 nmol/kg) [h]
1 | 2k PEG-hPTH(1-34): hPTH(1-34) reacted with mPEG 2 k-SPA, fraction having one 2 kDa PEG molecule per PTH molecule | 56.1 | about 56.1% | 53.78 | 1.684 | 0.300 | 1.231 | almost the same increase in ionized calcium levels as observed with 500 nmol/kg hPTH(1-34) | 3 | one | 95.781 | 14.03 | 0.465 | 1.128 |  |  |  |  | 
2 | 5k PEG-hPTH(1-34): hPTH(1-34) reacted with mPEG 5 k-SPA, fraction having one 5 kDa PEG molecule per PTH molecule |  |  | 126.793 | 5.706 | 0.813 | 6.758 | gradual increase in blood ionized calcium levels to reach the same maximum value as observed with hPTH(1-34) |  | 3 h | 178.547 | 7.49 | 2.578 | 5.706 | ~71.0 | mild hypotensive effect after administration | much weaker effect than hPTH(1-34) when administered at a higher dose | gradual increase in blood ionized calcium levels to reach the same maximum value as observed with 500 nmol/kg hPTH(1-34) | 3
